Assay results taken from the supplement of paper PMC11865577.

Legend:
Experiment in all cases: pull-down binding Z-score (relative to library population); higher = stronger binding
[1] = system: TO-3-N3 (biotin conjugate); settings: RNA library: Library-2
How it was run: (§1)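 Streptavidin beads bearing 100 pmol of a biotin-conjugated small molecule were incubated for 60 min at 25 °C with 1 μg of heat-folded, Cy5- or Cy3-end-labelled RNA library in phosphate/NaCl/KCl buffer. Hot SDS eluted the RNA that stayed bound after three washes, and this RNA was hybridised for 20 h at 55.5 °C to a DNA barcode microarray. Binding was expressed as a Z-score against the library mean and standard deviation, after subtraction of a beads-only signal and trimmed averaging of barcoded replicate probes.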

[2] = system: TO-3-N3-2 (biotin conjugate); settings: RNA library: Library-2
How it was run: as §1

[3] = system: G-clamp-N3 (biotin conjugate); settings: RNA library: Library-1 (pre-miRNA loops + repeats)
How it was run: as §1

[4] = system: TO-N3-2 (biotin conjugate); settings: RNA library: Library-2
How it was run: as §1

TO-N3 (biotin conjugate) = settings: RNA library: Library-2
How it was run: as §1

Row | Sequence | pull-down binding Z-score [1] | pull-down binding Z-score [2] | pull-down binding Z-score [3] | pull-down binding Z-score [4] | pull-down binding Z-score (TO-N3 (biotin conjugate))
1 | GCUGUGUUGAAUGAUUGGUGAGUUUGUUUGCUCAUUGAUUGAAUCACUGC [hsa-mir-3678] | -0.734 | 0.121 | 0.133 | -0.307 | -0.79
2 | CAGACCAUGCCACAUCCGUCUG [hsa-mir-7152] | -0.515 | -0.604 | -0.704 | -0.334 | -0.651
3 | CAGGAGUGGACACCUG [hsa-mir-1246] | -0.0928 | -0.238 | -0.505 | -0.454 | -0.198
4 | CUCAACUCUUGGUCCUCUGAG [hsa-mir-3165] | -0.385 | 0.0789 | -0.955 | 0.545 | -0.316
5 | UGGAAGCUCCAGGUGCCAACCACCUGCCUCUA [hsa-mir-6731] | 0.00854 | -0.134 | -0.826 | 0.456 | 0.231
6 | UGGGUUGUGUCAGUGUCAGACCUC [hsa-mir-146a] | -0.496 | -0.00346 | -0.421 | 0.838 | 0.187
7 | GCCUUGUGGCAUGGAGUUCAAGC [hsa-mir-107] | 0.468 | 0.0909 | 0.5 | 1.54 | 0.851
8 | GUGAGAUGUUCAUACAAUCCCUCAC [hsa-mir-216a] | -0.788 | -0.438 | -1.01 | -0.17 | -0.852
9 | UUUGCAUCUGGACGACGAAU [hsa-mir-409] | -0.355 | -0.0371 | -0.465 | 0.523 | -0.021
10 | UUGGUGACAGCAGCAGUAGAGUUGCCAG [hsa-mir-6501] | -0.632 | -0.445 | 0.0434 | 0.272 | -0.35
11 | GAAUUCGAUUCAUCAAAGCGAGUC [hsa-mir-485] | -0.128 | 0.143 | -0.234 | 0.225 | 0.0539
12 | GAGACUUAGAAAUCCCUAAGUCUC [hsa-mir-3921] | -0.258 | -0.246 | 0.443 | -0.875 | -0.761
13 | AGCACUUUCUGUUUUGUGAAAGAAAAGAAAGUGCU [hsa-mir-516b-1] | -0.893 | -0.64 | -0.472 | -1.2 | -1.32
14 | CUGCAGGAAAGGGAAGACCAAGGCUUGCUGUCUGUCCAGUCUGCCACCCUACCCUGU [hsa-mir-1231] | -0.0839 | 0.108 | -0.156 | 1.54 | 0.788
15 | CAGAGGCUGGCUUUCCAAAACUCUG [hsa-mir-1913] | 0.996 | 0.266 | -0.379 | 0.235 | 0.884
16 | UGCUUGAUCCAUAUGCAACAAGGCA [hsa-mir-103b-1] | 0.453 | 0.244 | -0.604 | 0.715 | 0.57
17 | ACGCGCUGUGACACUUCAAACUCGU [hsa-mir-126] | -0.0932 | -0.171 | -0.904 | 0.424 | 0.062
18 | AGCAUGCACUUAAUGUGGGUGUAUGU [hsa-mir-668] | 0.334 | -0.205 | 0.305 | -0.105 | 0.184
19 | UGGCUGUAGGGCAGCAGUCA [hsa-mir-8079] | 1.29 | 0.456 | 0.959 | 0.479 | 1.16

Row | Sequence | pull-down binding Z-score [1] | pull-down binding Z-score [2] | pull-down binding Z-score [3] | pull-down binding Z-score [4] | pull-down binding Z-score (TO-N3 (biotin conjugate))
20 | GAUUUCUAUGAGAACAUC [hsa-mir-3675] | -0.704 | -0.57 | -0.499 | -0.95 | -1.02
21 | UGGAGCCAGGGGGCCCAGGUCUACAGCUUCUCCCCGCUCCC [hsa-mir-6752] | -0.138 | -0.105 | -0.438 | 1.2 | 0.328
22 | CCUGACAGACAGCCUGAUAGACAGG [hsa-mir-4661] | 2 | 0.168 | -0.998 | 0.908 | 1.96
23 | GUGUGUGGCGUGGGUGCUGCGGGGCCGUCAGGGUGCCUGCGGGACGCUCAC [hsa-mir-6765] | 0.665 | 0.334 | 1.58 | 1.73 | 1.13
24 | UUGAGCAUCUUCUGGGCAGCUGA [hsa-mir-7854] | -0.0613 | 0.147 | -0.764 | 0.833 | 0.397
25 | GAGGCCAGAGGUGCCC [hsa-mir-4292] | -0.0325 | 0.122 | 0.687 | 1.3 | 0.295
26 | GUGUUUUCUCCUUUAGAGAGAGCUG [hsa-mir-4299] | -0.542 | -0.23 | 0.765 | 0.309 | -0.257
27 | GCUGCUUGCACUCGUUCAGC [hsa-mir-3661] | -0.0975 | -0.246 | 0.0999 | 0.863 | 0.1
28 | GAUGGAUUCUUAUGCUCCAUC [hsa-mir-136] | -0.326 | -0.443 | 0.328 | -0.9 | -0.631
29 | UUACUCACCCUCUCAAAACCGAGACUCAGAGACGUUGGGUAA [hsa-mir-7973-2] | -0.25 | 0.138 | -1.63 | 0.271 | -0.0759
30 | UCCUCCACAAAUGCGUGUGGAGGA [hsa-mir-4633] | -0.89 | -0.698 | 0.135 | -1.6 | -1.34
31 | CCCUCAUAUGGCAGUUGGCGAGGGCCCAGUGAG [hsa-mir-6769a] | 0.974 | 0.582 | 2.45 | 1.53 | 1.33
32 | GGUGGGCCUCUGCUCUGGCCCCUCC [hsa-mir-1343] | 0.0146 | -0.315 | 0.11 | 0.301 | 0.0649
33 | CAAGUAAAAGGAAUUUUCAUUUUCCAGCCCCUAAUUG [hsa-mir-6739] | -0.655 | -0.399 | -1.23 | -0.628 | -0.811
34 | CUCUCCUCCAGCUCAGCUGGUCAGGAGAG [hsa-mir-3160-1] | 1.09 | -0.0211 | -0.259 | -0.0869 | 0.959
35 | GGAGCCUUCCCCAGAGGAGUCAGGCC [hsa-mir-4312] | 0.273 | -0.0198 | 0.386 | 1.41 | 0.698
36 | GGGUGAGAGUGCUUUCUGAAUGCAGUGCACCC [hsa-mir-500b] | 0.297 | 0.131 | 0.8 | 0.985 | 0.52
37 | ACAGAGUGAGAUGGUCUUGUUUUGU [hsa-mir-5684] | -0.542 | -0.409 | 0.00683 | -0.546 | -0.673
